Laboratory results: article PMC9482650, “Quantitative fragmentomics allow affinity mapping of interactomes” (Nature Communications, 2022)
Changes are numbered by the printed parent chain.

T1: DLG3_1, Q92796
T1 sequence (Q92796 125-227, limits assumed, looked up): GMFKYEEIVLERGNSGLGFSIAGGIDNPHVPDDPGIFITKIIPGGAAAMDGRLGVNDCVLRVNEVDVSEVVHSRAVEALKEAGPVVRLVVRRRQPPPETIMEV

T2: DLG3_3, Q92796
T2 sequence (Q92796 374-475, limits assumed, looked up): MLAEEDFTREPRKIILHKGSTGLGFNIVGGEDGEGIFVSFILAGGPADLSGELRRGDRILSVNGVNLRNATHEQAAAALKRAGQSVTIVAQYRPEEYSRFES

T3: DVL3, Q92997
T3 sequence (Q92997 244-331, limits assumed, looked up): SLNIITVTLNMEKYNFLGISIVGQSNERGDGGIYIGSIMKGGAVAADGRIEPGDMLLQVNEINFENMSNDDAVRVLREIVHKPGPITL

T4: LIN7A, O14910
T4 sequence (O14910 103-200, limits assumed, looked up): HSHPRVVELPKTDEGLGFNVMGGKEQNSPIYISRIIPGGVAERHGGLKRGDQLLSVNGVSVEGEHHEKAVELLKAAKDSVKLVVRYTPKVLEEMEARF

T5: LIN7B, Q9HAP6
T5 sequence (Q9HAP6 88-185, limits assumed, looked up): T4 sequence (O14910 103-200, limits assumed, looked up) with S2A, V20I, I35V, E42D, H65Q, K77Q, D78G, K89R

T6: MPDZ_12, O75970
T6 sequence (O75970 1857-1958, limits assumed, looked up): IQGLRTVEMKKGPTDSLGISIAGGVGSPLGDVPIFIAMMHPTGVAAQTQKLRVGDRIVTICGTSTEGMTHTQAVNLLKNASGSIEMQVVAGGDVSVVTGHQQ

T7: PCLO, Q9Y6V0
T7 sequence (Q9Y6V0 4491-4600, limits assumed, looked up): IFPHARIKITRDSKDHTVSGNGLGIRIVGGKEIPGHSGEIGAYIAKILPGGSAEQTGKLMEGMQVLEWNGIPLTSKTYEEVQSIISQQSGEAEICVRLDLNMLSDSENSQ

T8: PTPN13_1, Q12923
T8 sequence (Q12923 1088-1188, limits assumed, looked up): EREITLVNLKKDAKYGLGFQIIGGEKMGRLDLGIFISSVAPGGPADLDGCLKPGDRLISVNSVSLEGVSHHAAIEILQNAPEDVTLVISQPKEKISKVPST

T9: SHANK1, Q9Y566
T9 sequence (Q9Y566 658-767, limits assumed, looked up): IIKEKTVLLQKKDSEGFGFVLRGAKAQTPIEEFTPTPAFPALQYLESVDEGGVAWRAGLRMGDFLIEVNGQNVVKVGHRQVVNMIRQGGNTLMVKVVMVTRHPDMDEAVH

T10: TX1BP3, O14907
T10 sequence (O14907 10-122, limits assumed, looked up): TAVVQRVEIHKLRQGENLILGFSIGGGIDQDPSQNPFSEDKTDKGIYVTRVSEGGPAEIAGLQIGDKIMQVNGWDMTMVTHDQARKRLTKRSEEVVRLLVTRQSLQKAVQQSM


Target: ARHGEF12, Q9NZN5-2
Sequence (Q9NZN5 other isoform, or with tags, fused parts or gaps): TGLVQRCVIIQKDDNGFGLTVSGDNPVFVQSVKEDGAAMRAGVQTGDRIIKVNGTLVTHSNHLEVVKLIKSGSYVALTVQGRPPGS
Assay: holdup assay
Design: key: below the threshold = too weak to quantify, mostly under pKd 3.1 to 4
Details: plain residues with an end cap or a label only (N-terminal biotin on a linker: ado-ado)

Row | Binder | pKd
1 | LVEEEEPMNL [HDAC7, Q8WUI4] | below the threshold
2 | NISARRFTLC [FAM167B, Q9BTA0] | 4.13

Target: DLG1_2, Q12959
Sequence (Q12959 314-412): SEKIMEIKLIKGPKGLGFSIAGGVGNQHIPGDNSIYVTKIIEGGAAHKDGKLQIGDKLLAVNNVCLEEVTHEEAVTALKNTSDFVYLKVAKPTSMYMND
Assay: holdup assay
Design: key: below the threshold = too weak to quantify, mostly under pKd 3.1 to 4
Details: plain residues with an end cap or a label only (N-terminal biotin on a linker: ado-ado)

Row | Binder | pKd
3 | LVEEEEPMNL [HDAC7, Q8WUI4] | below the threshold
4 | NISARRFTLC [FAM167B, Q9BTA0] | 3.92

Target: T1, DLG3_1, Q92796
Assay: holdup assay
Design: key: below the threshold = too weak to quantify, mostly under pKd 3.1 to 4
Details: plain residues with an end cap or a label only (N-terminal biotin on a linker: ado-ado)

Row | Binder | pKd
5 | LVEEEEPMNL [HDAC7, Q8WUI4] | below the threshold
6 | NISARRFTLC [FAM167B, Q9BTA0] | 3.98

Target: T2, DLG3_3, Q92796
Assay: holdup assay
Design: key: below the threshold = too weak to quantify, mostly under pKd 3.1 to 4
Details: plain residues with an end cap or a label only (N-terminal biotin on a linker: ado-ado)

Row | Binder | pKd
7 | LVEEEEPMNL [HDAC7, Q8WUI4] | below the threshold
8 | NISARRFTLC [FAM167B, Q9BTA0] | 4.25

Target: DLG5_1, Q8TDM6
Sequence (Q8TDM6 617-713): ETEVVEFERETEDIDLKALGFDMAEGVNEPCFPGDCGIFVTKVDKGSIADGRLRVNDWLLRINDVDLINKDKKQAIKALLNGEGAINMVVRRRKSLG
Assay: holdup assay
Design: key: below the threshold = too weak to quantify, mostly under pKd 3.1 to 4
Details: plain residues with an end cap or a label only (N-terminal biotin on a linker: ado-ado)

Row | Binder | pKd
9 | LVEEEEPMNL [HDAC7, Q8WUI4] | below the threshold
10 | NISARRFTLC [FAM167B, Q9BTA0] | below the threshold

Target: T3, DVL3, Q92997
Assay: holdup assay
Design: key: below the threshold = too weak to quantify, mostly under pKd 3.1 to 4
Details: plain residues with an end cap or a label only (N-terminal biotin on a linker: ado-ado)

Row | Binder | pKd
11 | LVEEEEPMNL [HDAC7, Q8WUI4] | below the threshold
12 | NISARRFTLC [FAM167B, Q9BTA0] | below the threshold

Target: FRMPD2_1, Q68DX3
Sequence (Q68DX3 770-861): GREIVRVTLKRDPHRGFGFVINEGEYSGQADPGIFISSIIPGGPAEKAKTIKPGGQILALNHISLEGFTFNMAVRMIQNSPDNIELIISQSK
Assay: holdup assay
Design: key: below the threshold = too weak to quantify, mostly under pKd 3.1 to 4
Details: plain residues with an end cap or a label only (N-terminal biotin on a linker: ado-ado)

Row | Binder | pKd
13 | LVEEEEPMNL [HDAC7, Q8WUI4] | below the threshold
14 | NISARRFTLC [FAM167B, Q9BTA0] | 4.1

Target: GOPC, Q9HD26
Assay: holdup assay
Design: key: below the threshold = too weak to quantify, mostly under pKd 3.1 to 4
Details: plain residues with an end cap or a label only (N-terminal biotin on a linker: ado-ado)

Row | Binder | pKd
15 | LVEEEEPMNL [HDAC7, Q8WUI4] | below the threshold
16 | NISARRFTLC [FAM167B, Q9BTA0] | below the threshold

Target: GORASP2, Q9H8Y8
Assay: holdup assay
Design: key: below the threshold = too weak to quantify, mostly under pKd 3.1 to 4
Details: plain residues with an end cap or a label only (N-terminal biotin on a linker: ado-ado)

Row | Binder | pKd
17 | LVEEEEPMNL [HDAC7, Q8WUI4] | below the threshold
18 | NISARRFTLC [FAM167B, Q9BTA0] | 3.9

Target: GRASP, Q7Z6J2
Sequence (Q7Z6J2 96-193): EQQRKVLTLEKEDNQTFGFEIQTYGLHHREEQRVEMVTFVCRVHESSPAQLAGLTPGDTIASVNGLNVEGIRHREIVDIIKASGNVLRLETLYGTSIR
Assay: holdup assay
Design: key: below the threshold = too weak to quantify, mostly under pKd 3.1 to 4
Details: plain residues with an end cap or a label only (N-terminal biotin on a linker: ado-ado)

Row | Binder | pKd
19 | LVEEEEPMNL [HDAC7, Q8WUI4] | below the threshold
20 | NISARRFTLC [FAM167B, Q9BTA0] | 4.36

Target: GRID2IP_1, A4D2P6
Sequence (A4D2P6 1-87): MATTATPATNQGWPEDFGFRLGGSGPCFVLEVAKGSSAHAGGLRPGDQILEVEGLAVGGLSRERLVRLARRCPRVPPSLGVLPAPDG
Assay: holdup assay
Design: key: below the threshold = too weak to quantify, mostly under pKd 3.1 to 4
Details: plain residues with an end cap or a label only (N-terminal biotin on a linker: ado-ado)

Row | Binder | pKd
21 | LVEEEEPMNL [HDAC7, Q8WUI4] | below the threshold
22 | NISARRFTLC [FAM167B, Q9BTA0] | below the threshold

Target: Inadl_1, Q8NI35
Sequence (Q8NI35 113-229): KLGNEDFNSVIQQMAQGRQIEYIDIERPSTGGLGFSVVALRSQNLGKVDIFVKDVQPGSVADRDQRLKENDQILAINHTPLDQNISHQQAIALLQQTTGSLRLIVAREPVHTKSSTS
Assay: holdup assay
Design: key: below the threshold = too weak to quantify, mostly under pKd 3.1 to 4
Details: plain residues with an end cap or a label only (N-terminal biotin on a linker: ado-ado)

Row | Binder | pKd
23 | LVEEEEPMNL [HDAC7, Q8WUI4] | below the threshold
24 | NISARRFTLC [FAM167B, Q9BTA0] | below the threshold

Target: Inadl_10, Q8NI35
Sequence (Q8NI35 1673-1763): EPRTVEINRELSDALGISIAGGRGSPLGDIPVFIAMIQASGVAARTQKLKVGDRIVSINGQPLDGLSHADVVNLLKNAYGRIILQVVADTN
Assay: holdup assay
Design: key: below the threshold = too weak to quantify, mostly under pKd 3.1 to 4
Details: plain residues with an end cap or a label only (N-terminal biotin on a linker: ado-ado)

Row | Binder | pKd
25 | LVEEEEPMNL [HDAC7, Q8WUI4] | below the threshold
26 | NISARRFTLC [FAM167B, Q9BTA0] | below the threshold

Target: Inadl_5, Q8NI35
Sequence (Q8NI35 673-780): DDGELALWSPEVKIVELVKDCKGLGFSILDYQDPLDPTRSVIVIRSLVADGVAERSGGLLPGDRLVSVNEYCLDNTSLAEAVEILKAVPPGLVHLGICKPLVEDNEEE
Assay: holdup assay
Design: key: below the threshold = too weak to quantify, mostly under pKd 3.1 to 4
Details: plain residues with an end cap or a label only (N-terminal biotin on a linker: ado-ado)

Row | Binder | pKd
27 | LVEEEEPMNL [HDAC7, Q8WUI4] | below the threshold
28 | NISARRFTLC [FAM167B, Q9BTA0] | below the threshold

Target: Inadl_9, Q8NI35
Sequence (Q8NI35 1530-1615): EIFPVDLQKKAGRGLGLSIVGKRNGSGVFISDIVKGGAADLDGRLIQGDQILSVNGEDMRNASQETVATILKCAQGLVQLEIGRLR
Assay: holdup assay
Design: key: below the threshold = too weak to quantify, mostly under pKd 3.1 to 4
Details: plain residues with an end cap or a label only (N-terminal biotin on a linker: ado-ado)

Row | Binder | pKd
29 | LVEEEEPMNL [HDAC7, Q8WUI4] | below the threshold
30 | NISARRFTLC [FAM167B, Q9BTA0] | below the threshold

Target: T4, LIN7A, O14910
Assay: holdup assay
Design: key: below the threshold = too weak to quantify, mostly under pKd 3.1 to 4
Details: plain residues with an end cap or a label only (N-terminal biotin on a linker: ado-ado)

Row | Binder | pKd
31 | LVEEEEPMNL [HDAC7, Q8WUI4] | below the threshold
32 | NISARRFTLC [FAM167B, Q9BTA0] | below the threshold

Target: T5, LIN7B, Q9HAP6
Assay: holdup assay
Design: key: below the threshold = too weak to quantify, mostly under pKd 3.1 to 4
Details: plain residues with an end cap or a label only (N-terminal biotin on a linker: ado-ado)

Row | Binder | pKd
33 | LVEEEEPMNL [HDAC7, Q8WUI4] | below the threshold
34 | NISARRFTLC [FAM167B, Q9BTA0] | 4.08

Target: LNX1_1, Q8TBB1
Sequence (Q8TBB1 261-371): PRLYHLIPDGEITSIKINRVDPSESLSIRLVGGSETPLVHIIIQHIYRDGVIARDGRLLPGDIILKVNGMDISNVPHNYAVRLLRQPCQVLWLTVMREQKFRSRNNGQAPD
Assay: holdup assay
Design: key: below the threshold = too weak to quantify, mostly under pKd 3.1 to 4
Details: plain residues with an end cap or a label only (N-terminal biotin on a linker: ado-ado)

Row | Binder | pKd
35 | LVEEEEPMNL [HDAC7, Q8WUI4] | below the threshold
36 | NISARRFTLC [FAM167B, Q9BTA0] | 3.85

Target: MAGI2_2, Q86UL8
Sequence (Q86UL8 410-522): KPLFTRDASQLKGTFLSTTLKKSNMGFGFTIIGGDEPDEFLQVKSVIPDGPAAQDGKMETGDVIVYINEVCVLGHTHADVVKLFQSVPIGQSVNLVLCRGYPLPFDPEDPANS
Assay: holdup assay
Design: key: below the threshold = too weak to quantify, mostly under pKd 3.1 to 4
Details: plain residues with an end cap or a label only (N-terminal biotin on a linker: ado-ado)

Row | Binder | pKd
37 | LVEEEEPMNL [HDAC7, Q8WUI4] | below the threshold
38 | NISARRFTLC [FAM167B, Q9BTA0] | 4.76

Target: MAGI2_6, Q86UL8
Sequence (Q86UL8 1141-1229): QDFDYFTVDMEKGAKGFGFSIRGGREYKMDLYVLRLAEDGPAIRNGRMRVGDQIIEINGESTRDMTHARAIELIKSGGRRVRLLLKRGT
Assay: holdup assay
Design: key: below the threshold = too weak to quantify, mostly under pKd 3.1 to 4
Details: plain residues with an end cap or a label only (N-terminal biotin on a linker: ado-ado)

Row | Binder | pKd
39 | LVEEEEPMNL [HDAC7, Q8WUI4] | below the threshold
40 | NISARRFTLC [FAM167B, Q9BTA0] | below the threshold

Target: MAST2, Q6P0Q8
Sequence (Q6P0Q8 1099-1202): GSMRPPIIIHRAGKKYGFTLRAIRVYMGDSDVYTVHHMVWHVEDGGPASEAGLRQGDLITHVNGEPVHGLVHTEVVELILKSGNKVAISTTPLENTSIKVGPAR
Assay: holdup assay
Design: key: below the threshold = too weak to quantify, mostly under pKd 3.1 to 4
Details: plain residues with an end cap or a label only (N-terminal biotin on a linker: ado-ado)

Row | Binder | pKd
41 | LVEEEEPMNL [HDAC7, Q8WUI4] | 4.08
42 | NISARRFTLC [FAM167B, Q9BTA0] | 4.89

Target: T6, MPDZ_12, O75970
Assay: holdup assay
Design: key: below the threshold = too weak to quantify, mostly under pKd 3.1 to 4
Details: plain residues with an end cap or a label only (N-terminal biotin on a linker: ado-ado)

Row | Binder | pKd
43 | LVEEEEPMNL [HDAC7, Q8WUI4] | below the threshold
44 | NISARRFTLC [FAM167B, Q9BTA0] | 3.52

Target: NHERF2_2, Q15599
Sequence (Q15599 142-238): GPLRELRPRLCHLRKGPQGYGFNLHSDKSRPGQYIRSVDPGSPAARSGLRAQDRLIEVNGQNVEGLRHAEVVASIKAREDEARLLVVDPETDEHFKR
Assay: holdup assay
Design: key: below the threshold = too weak to quantify, mostly under pKd 3.1 to 4
Details: plain residues with an end cap or a label only (N-terminal biotin on a linker: ado-ado)

Row | Binder | pKd
45 | LVEEEEPMNL [HDAC7, Q8WUI4] | 3.5
46 | NISARRFTLC [FAM167B, Q9BTA0] | below the threshold

Target: NHERF4_4, Q86UT5
Sequence (Q86UT5 464-550): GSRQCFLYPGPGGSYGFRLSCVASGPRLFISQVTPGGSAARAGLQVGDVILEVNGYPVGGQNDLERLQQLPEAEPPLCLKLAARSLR
Assay: holdup assay
Design: key: below the threshold = too weak to quantify, mostly under pKd 3.1 to 4
Details: plain residues with an end cap or a label only (N-terminal biotin on a linker: ado-ado)

Row | Binder | pKd
47 | LVEEEEPMNL [HDAC7, Q8WUI4] | 3.78
48 | NISARRFTLC [FAM167B, Q9BTA0] | below the threshold

Target: T7, PCLO, Q9Y6V0
Assay: holdup assay
Design: key: below the threshold = too weak to quantify, mostly under pKd 3.1 to 4
Details: plain residues with an end cap or a label only (N-terminal biotin on a linker: ado-ado)

Row | Binder | pKd
49 | LVEEEEPMNL [HDAC7, Q8WUI4] | below the threshold
50 | NISARRFTLC [FAM167B, Q9BTA0] | below the threshold

Target: T8, PTPN13_1, Q12923
Assay: holdup assay
Design: key: below the threshold = too weak to quantify, mostly under pKd 3.1 to 4
Details: plain residues with an end cap or a label only (N-terminal biotin on a linker: ado-ado)

Row | Binder | pKd
51 | LVEEEEPMNL [HDAC7, Q8WUI4] | below the threshold
52 | NISARRFTLC [FAM167B, Q9BTA0] | below the threshold

Target: T9, SHANK1, Q9Y566
Assay: holdup assay
Design: key: below the threshold = too weak to quantify, mostly under pKd 3.1 to 4
Details: plain residues with an end cap or a label only (N-terminal biotin on a linker: ado-ado)

Row | Binder | pKd
53 | LVEEEEPMNL [HDAC7, Q8WUI4] | below the threshold
54 | NISARRFTLC [FAM167B, Q9BTA0] | below the threshold

Target: T10, TX1BP3, O14907
Assay: holdup assay
Design: key: below the threshold = too weak to quantify, mostly under pKd 3.1 to 4
Details: plain residues with an end cap or a label only (N-terminal biotin on a linker: ado-ado)

Row | Binder | pKd
55 | LVEEEEPMNL [HDAC7, Q8WUI4] | 4.01
56 | NISARRFTLC [FAM167B, Q9BTA0] | below the threshold
